Experimental data from patent US20230296621A1 (CHAN ZUCKERBERG BIOHUB, published 2023).

B1: C004 IgG (antibody, V domains shown)
VH: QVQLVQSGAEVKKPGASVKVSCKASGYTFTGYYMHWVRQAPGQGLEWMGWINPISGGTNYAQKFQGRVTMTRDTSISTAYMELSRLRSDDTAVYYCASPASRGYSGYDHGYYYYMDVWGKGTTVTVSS
VL: AIRMTQSPSSLSASVGDRVTITCQASQDISNYLNWYQQKPGKAPKLLIYDASNLETGVPSRFSGSGSGTDFTFTISSLQPEDIATYYCQQYDNLPITFGQGTRLEIKR
notes: also called recombinant anti-S-RBD antibody C004
B2: C105 IgG (antibody, V domains shown)
VH: QVQLVESGGGLIQPGGSLRLSCAASGFTVSSNYMSWVRQAPGKGLEWVSVIYSGGSTYYADSVKGRFTISRDNSKNTLYLQMNSLRAEDTAVYYCARGEGWELPYDYWGQGTLVTVSS
VL: QSALTQPPSASGSPGQSVTISCTGTSSDVGGYKYVSWYQQHPGKAPKLMIYEVSKRPSGVPDRFSGSKSGNTASLTVSGLQAEDEADYYCSSYEGSNNFVVFGGGTKLTVLG

Molecular target: SARS-CoV-2 Spike receptor binding domain (SpikeRBD, aa 328-533) (SARS-CoV-2, UniProt P0DTC2 328-533)
Assay: BLI on immobilised biotinylated Spike-RBD

Binder	binding result
B1	binds
B2	binds
